B1: Cyclic peptide 1 (peptide)
peptide: {CH2CO}-I[Dap](COCH2)RGD[hCys]F[hCys]KKK
modifications: thioether 2-6, N-8
B2: Cyclic peptide 21 (peptide)
peptide: K[Dap]RGD[hCys]F[hCys]KKK
modifications: bridge N-8, 2-6; not fully specified (N-terminus, bridges); printed as K RGD- -F-(Hcy)-KKK
B3: Cyclic peptide 18 (peptide)
peptide: {CH2CO}-ICRGDK(COCH2)F[hCys]KKK
modifications: thioether 2-6 via Ac; thioether N-8; not fully specified
notes: bicyclic; all residues L; immobilised on CM5 chip through amino groups
B4: Cyclic peptide 28 (peptide)
peptide: {CH2CO}-V[hCys]RGDK(COCH2)F[hCys]KKK
modifications: thioether 2-6, N-8
B5: Cyclic peptide 27 (peptide)
peptide: {CH2CO}-T[hCys]RGDK(COCH2)F[hCys]KKK
modifications: thioether 2-6, N-8
B6: Cyclic peptide 26 (peptide)
peptide: XXRGDXFXKKK
modifications: not fully specified; thioether: L1 alpha-NH2 through acetyl to Hcy8; thioether: Hcy2 to K(acetyl)6
B7: Cyclic peptide 46 (peptide)
peptide: {CH2CO}-E[hCys]RGDK(COCH2)F[hCys]AKKK
modifications: thioether 2-6, N-8
B8: Cyclic peptide 43 (peptide)
peptide: {CH2CO}-E[hCys]RGD[Orn](COCH2)F[hCys]KKK
modifications: thioether 2-6, N-8
B9: Cyclic peptide 15 (peptide)
peptide: {CH2CO}-I[Orn](COCH2)RGD[hCys]FCKKK
modifications: thioether 2-6 via Ac; thioether N-8; not fully specified
notes: as for B3
B10: Cyclic peptide 3 (peptide)
peptide: {CH2CO}-I[Orn](COCH2)RGD[hCys]F[hCys]KKK
modifications: thioether 2-6, N-8
B11: Cyclic peptide 42 (peptide)
peptide: {CH2CO}-D[hCys]RGD[Orn](COCH2)F[hCys]KKK
modifications: thioether 2-6, N-8
B12: Cyclic peptide 39 (peptide)
peptide: {CH2CO}-D[Orn]RGD[hCys]F[hCys]KKK
modifications: thioether N-8; bridge 2-6; not fully specified (residue 2, bridges)
B13: Cyclic peptide 11 (peptide)
peptide: {CH2CO}-I[hCys]RGDK(COCH2)F[hCys]KKK
modifications: thioether 2-6, N-8
B14: Cyclic peptide 17 (peptide)
peptide: {CH2CO}-I[hCys]RGDK(COCH2)FCKKK
modifications: thioether 2-6 via Ac; thioether N-8; not fully specified
notes: as for B3
B15: Cyclic peptide 45 (peptide)
peptide: {CH2CO}-D[hCys]RGDK(COCH2)F[hCys]AKKK
modifications: thioether 2-6, N-8
B16: Cyclic peptide 23 (peptide)
peptide: {CH2CO}-I[Orn](COCH2)RGD[hCys]F[Pen]KKK
modifications: thioether 2-6, N-8
B17: Cyclic peptide 24 (peptide)
peptide: {CH2CO}-E[Orn]RGD[hCys]F[Pen]KKK
modifications: thioether N-8; bridge 2-6; not fully specified (residue 2, bridges); printed as E RGD- -F-(Pen)-KKK
B18: Cyclic peptide 14 (peptide)
peptide: {CH2CO}-I[Dap](COCH2)RGDCF[hCys]KKK
modifications: thioether 2-6 via Ac; thioether N-8; not fully specified
notes: as for B3
B19: Cyclic peptide 29 (peptide)
peptide: {CH2CO}-D[hCys]RGDK(COCH2)F[hCys]KKK
modifications: thioether 2-6, N-8
B20: Cyclic peptide 22 (peptide)
peptide: {CH2CO}-I[hCys]RGDK(COCH2)F[hCys]K
modifications: thioether 2-6, N-8
B21: Cyclic peptide 35 (peptide)
peptide: {CH2CO}-I[hCys]RGDK(COCH2)F[hCys]AKKK
modifications: thioether 2-6, N-8
B22: Cyclic peptide 8 (peptide)
peptide: {CH2CO}-ICRGD[Dab](COCH2)FCKKK
modifications: thioether 2-6 via Ac; thioether N-8
notes: as for B3
B23: Cyclic peptide 30 (peptide)
peptide: {CH2CO}-E[hCys]RGDK(COCH2)F[hCys]KKK
modifications: thioether 2-6, N-8
B24: Cyclic peptide 38 (peptide)
peptide: {CH2CO}-V[Orn](COCH2)RGD[hCys]F[hCys]KKK
modifications: thioether 2-6, N-8
B25: Cyclic peptide 48 (peptide)
peptide: {CH2CO}-KCRGDCFCKKK
modifications: disulfide 2-6; thioether N-8
notes: bicyclic comparative peptide; all residues L; immobilised on CM5 chip through amino groups
B26: Cyclic peptide 40 (peptide)
peptide: {CH2CO}-E[Orn](COCH2)RGD[hCys]F[hCys]KKK
modifications: thioether 2-6, N-8
B27: Cyclic peptide 49 (peptide)
peptide: ACDCRGDCFCGKKK
modifications: disulfide 2-10, 4-8
notes: as for B25
B28: Cyclic peptide 25 (peptide)
peptide: {CH2CO}-Y[hCys]RGDK(COCH2)F[hCys]KKK
modifications: thioether 2-6, N-8
B29: Cyclic peptide 47 (peptide)
peptide: {CH2CO}-E[hCys]RGD[Orn](COCH2)F[hCys]AKKK
modifications: thioether 2-6, N-8
B30: Cyclic peptide 44 (peptide)
peptide: {CH2CO}-V[hCys]RGDK(COCH2)F[hCys]AKKK
modifications: thioether 2-6, N-8
B31: Cyclic peptide 12 (peptide)
peptide: XCRGDXFCKKK
modifications: not fully specified; thioether: I1 alpha-NH2 through acetyl to C8; thioether: C2 to K(acetyl)6
notes: as for B3
B32: Cyclic peptide 20 (peptide)
peptide: {CH2CO}-ICRGD[Dab](COCH2)F[hCys]KKK
modifications: thioether 2-6 via Ac; thioether N-8; not fully specified
notes: as for B3

Bridge positions count the residues as written; N and C are the ends. Square brackets hold non-standard residues; d marks the D form. Ends that are not written are not given here. COCH2 = acetyl group that carries the bridge; Pen = CC(C)(S)[C@H](N)C(=O)O; hCys = N[C@@H](CCS)C(=O)O; Orn = NCCC[C@H](N)C(=O)O; Dab = NCC[C@H](N)C(=O)O; Dap = NC[C@H](N)C(=O)O

The target of one experiment is T1, human integrin αvβ5 (human, UniProt P06756 31-992; P18084 24-719).
T1 construct: soluble analyte in SPR at 30, 100, 300 and 1,000 nM in HEPES buffer with 5 mM magnesium chloride; heterodimer of an alpha and a beta chain
T1 sequence (P06756 31-992, chain 1 of 2): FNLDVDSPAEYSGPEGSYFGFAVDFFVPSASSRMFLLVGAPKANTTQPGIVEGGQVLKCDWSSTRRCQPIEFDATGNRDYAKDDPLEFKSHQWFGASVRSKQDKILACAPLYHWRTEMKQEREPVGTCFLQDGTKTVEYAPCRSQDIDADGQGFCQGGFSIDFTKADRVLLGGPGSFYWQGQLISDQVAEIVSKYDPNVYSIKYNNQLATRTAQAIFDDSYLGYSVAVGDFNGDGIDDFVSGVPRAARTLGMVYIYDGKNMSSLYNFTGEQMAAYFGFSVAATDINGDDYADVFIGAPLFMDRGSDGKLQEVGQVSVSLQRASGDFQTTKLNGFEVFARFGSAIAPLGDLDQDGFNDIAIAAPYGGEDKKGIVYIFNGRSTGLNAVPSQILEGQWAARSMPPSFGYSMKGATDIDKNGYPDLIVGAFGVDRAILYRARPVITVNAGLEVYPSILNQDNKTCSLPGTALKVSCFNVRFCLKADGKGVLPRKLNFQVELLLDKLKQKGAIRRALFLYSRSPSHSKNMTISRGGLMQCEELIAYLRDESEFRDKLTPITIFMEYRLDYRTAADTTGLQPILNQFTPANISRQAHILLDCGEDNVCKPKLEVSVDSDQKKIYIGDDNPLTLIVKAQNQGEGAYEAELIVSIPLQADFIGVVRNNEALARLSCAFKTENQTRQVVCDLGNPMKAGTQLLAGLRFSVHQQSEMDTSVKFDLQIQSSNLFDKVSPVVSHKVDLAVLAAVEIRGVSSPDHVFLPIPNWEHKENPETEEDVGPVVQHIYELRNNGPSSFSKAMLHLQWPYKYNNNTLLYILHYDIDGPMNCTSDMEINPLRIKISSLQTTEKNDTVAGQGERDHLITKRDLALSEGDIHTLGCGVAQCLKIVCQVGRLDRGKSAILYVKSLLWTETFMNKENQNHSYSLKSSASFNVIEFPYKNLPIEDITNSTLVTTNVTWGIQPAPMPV
T1 sequence (P18084 24-719, chain 2 of 2): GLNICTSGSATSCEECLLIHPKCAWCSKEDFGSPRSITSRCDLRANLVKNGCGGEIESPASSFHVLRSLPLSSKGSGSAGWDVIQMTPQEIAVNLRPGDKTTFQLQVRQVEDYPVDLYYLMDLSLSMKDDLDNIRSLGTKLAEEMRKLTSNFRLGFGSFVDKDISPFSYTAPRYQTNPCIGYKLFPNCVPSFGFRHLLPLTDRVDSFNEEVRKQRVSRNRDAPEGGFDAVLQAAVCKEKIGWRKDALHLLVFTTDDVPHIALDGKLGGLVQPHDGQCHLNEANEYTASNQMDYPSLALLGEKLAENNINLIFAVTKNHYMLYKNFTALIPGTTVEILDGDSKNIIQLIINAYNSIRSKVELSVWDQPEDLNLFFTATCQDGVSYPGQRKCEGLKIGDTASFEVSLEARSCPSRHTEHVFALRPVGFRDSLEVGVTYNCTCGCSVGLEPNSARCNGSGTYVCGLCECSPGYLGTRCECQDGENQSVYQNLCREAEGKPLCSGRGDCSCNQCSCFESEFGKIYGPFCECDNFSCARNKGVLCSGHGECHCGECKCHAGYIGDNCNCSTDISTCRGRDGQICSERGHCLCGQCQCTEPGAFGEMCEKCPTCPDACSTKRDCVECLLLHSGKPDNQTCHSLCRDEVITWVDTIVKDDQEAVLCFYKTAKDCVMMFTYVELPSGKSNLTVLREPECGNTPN
Kind of experiment: SPR, Biacore 3000, peptide immobilised on CM5 chip, integrin 30-1000 nM flowed; grade B = dissociation constant more than 50 nM and 100 nM or less. The method, then:
(§1) However, only for the cyclic peptide 22, in which the number of lysine residues having an amino group as the immobilizing functional group was 1, the sample solution to be supplied to the sensor chip was set to 5,000 μL instead of 300 μL. Similarly, 70 μL of the mixed aqueous solution of 0.2 M EDC and 0.04 M NHS was added to another flow channel of the same sensor chip without immobilizing the sample, and then blocking treatment and washing treatment were carried out. Hereinafter, the obtained immobilization-treated sensor chip is referred to as an “immobilization-treated sensor chip A”.
(§2) After adding human integrin αvβ5 for 10 minutes at 25° C., which was diluted to 30 nM using a HEPES buffer solution to which magnesium chloride was added to 5 mM, in each flow channel of the immobilization-treated sensor chip A prepared in (1) above, the same HEPES buffer solution (containing 5 mM magnesium chloride) was allowed to flow as a running buffer for 30 minutes, and measurement was carried out with Biacore 3000.
(§3) Then, a regeneration treatment of removing human integrin αvβ5 was carried out by allowing a 0.5 M EDTA aqueous solution to flow through each flow channel for 10 minutes. Further, the above-described measurement process consisting of adding integrin for 10 minutes, allowing a running buffer to flow for 30 minutes, carrying out measurement with Biacore 3000, and carrying out regeneration treatment with 0.5 M EDTA aqueous solution was carried out in the same manner for 100 nM human integrin αvβ5, 300 nM human integrin αvβ5, and 1,000 nM human integrin αvβ5. Dissociation constant between the cyclic peptide and human integrin αvβ5 was calculated from the difference between the value measured by Biacore 3000 in the flow channel immobilized with the cyclic peptide and the value measured by Biacore 3000 in the flow channel unimmobilized with the cyclic peptide, in a case where each concentration of human integrin αvβ5 was allowed to flow, and the integrin binding property was evaluated according to the following evaluation standards. It is preferable that the evaluation result satisfies the evaluation standard A, B, or C.
For B1, the dissociation constant (KD) is 50 to 100 nM.
On the same count and under the same terms, in the case of B2 it was 50 to 100 nM.

The next experiment addresses T1, human integrin αvβ5. Put plainly: SPR, Biacore 3000, peptide immobilised on CM5 chip, integrin 30-1000 nM flowed; grade A = dissociation constant 50 nM or less. As for the experimental part: as §1, §2, §3
For the molecule B3, the “dissociation constant (KD)” value is not above 50 nM.
B4 had a dissociation constant of less than 50 nM.
As for B5, the dissociation constant was less than 50 nM.
Still for that read-out and setting: next, B6: less than 50 nM; B7: less than 50 nM.
On the same count and under the same terms, next, B8: less than 50 nM.
With B9, the “dissociation constant (KD)” value was not above 50 nM.
Same read-out and setting: next, B10: less than 50 nM.
On to B11, for which the dissociation constant was less than 50 nM.
The same measure, in the same setting: next, B12: less than 50 nM.
For B13, the dissociation constant (KD) was less than 50 nM.
Same read-out and setting: next, B14: not above 50 nM.
In turn, B15 yielded a dissociation constant of less than 50 nM.
Molecule B16 gave a dissociation constant (KD) of less than 50 nM.
On the same count and under the same terms, next, B17: less than 50 nM; B18: not above 50 nM.
B19 gave a dissociation constant of less than 50 nM.
The molecule B20 displayed a dissociation constant (KD) of less than 50 nM.
The molecule B21 yielded a dissociation constant of less than 50 nM.
Regarding B22, the “dissociation constant (KD)” value is not above 50 nM.
Turning to B23, the dissociation constant is less than 50 nM.
The same measure, in the same setting: in the case of B24 it was less than 50 nM.
Turning to B25, the dissociation constant was not above 50 nM.
The same measure, in the same setting: next, B26: less than 50 nM.
Same read-out and setting: next, B27: not above 50 nM; B28: less than 50 nM; B29: less than 50 nM.
Turning to B30, the dissociation constant is less than 50 nM.
Regarding B31, the “dissociation constant (KD)” value was not above 50 nM.
As to B32, the “dissociation constant (KD)” value was not above 50 nM.

These data come from patent US20220098240A1 (FUJIFILM, published 2022).
